From paper PMC10397247

Legend:
4H2931-bN = target: T1, 4H2931-bN; assay: two-hybrid library CCNG1;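 also: natural log of median RNA to DNA barcode read ratio; higher means stronger binding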
T1 chain: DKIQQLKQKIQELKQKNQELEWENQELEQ

4H796-bN = target: T2, 4H796-bN; assay: two-hybrid library CCNG1;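 also: natural log of median RNA to DNA barcode read ratio; higher means stronger binding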
T2 chain: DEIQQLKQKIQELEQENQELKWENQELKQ

4H3041-bN = target: T3, 4H3041-bN; assay: two-hybrid library CCNG1;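 also: natural log of median RNA to DNA barcode read ratio; higher means stronger binding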
T3 chain: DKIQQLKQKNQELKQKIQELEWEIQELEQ

4H2518-bN = target: T4, 4H2518-bN; assay: two-hybrid library CCNG1;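 also: natural log of median RNA to DNA barcode read ratio; higher means stronger binding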
T4 chain: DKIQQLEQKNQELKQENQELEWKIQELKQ

4H730-bN = target: T5, 4H730-bN; assay: two-hybrid library CCNG1;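 also: natural log of median RNA to DNA barcode read ratio; higher means stronger binding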
T5 chain: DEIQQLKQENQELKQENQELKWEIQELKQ

4H2444-bN = target: T6, 4H2444-bN; assay: two-hybrid library CCNG1;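 also: natural log of median RNA to DNA barcode read ratio; higher means stronger binding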
T6 chain: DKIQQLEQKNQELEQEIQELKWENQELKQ

4H3364-bN = target: T7, 4H3364-bN; assay: two-hybrid library CCNG1
T7 chain: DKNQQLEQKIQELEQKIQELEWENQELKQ

4H3381-bN = target: T8, 4H3381-bN; assay: two-hybrid library CCNG1
T8 chain: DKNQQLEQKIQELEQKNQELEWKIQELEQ

4H2760-bN = target: T9, 4H2760-bN; assay: two-hybrid library CCNG1
T9 chain: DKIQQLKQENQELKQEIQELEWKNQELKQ

4H932-bN = target: T10, 4H932-bN; assay: two-hybrid library CCNG1
T10 chain: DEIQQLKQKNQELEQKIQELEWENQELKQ

4H349-bN = target: T11, 4H349-bN; assay: two-hybrid library CCNG1
T11 chain: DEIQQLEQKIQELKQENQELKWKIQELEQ

4H2585-bN = target: T12, 4H2585-bN; assay: two-hybrid library CCNG1
T12 chain: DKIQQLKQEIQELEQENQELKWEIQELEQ

4H2859-bN = target: T13, 4H2859-bN; assay: two-hybrid library CCNG1
T13 chain: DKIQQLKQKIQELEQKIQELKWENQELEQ

4H949-bN = target: T14, 4H949-bN; assay: two-hybrid library CCNG1
T14 chain: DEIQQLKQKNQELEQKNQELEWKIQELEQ

4H264-bN = target: T15, 4H264-bN; assay: two-hybrid library CCNG1
T15 chain: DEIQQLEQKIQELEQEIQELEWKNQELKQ

4H3297-bN = target: T16, 4H3297-bN; assay: two-hybrid library CCNG1
T16 chain: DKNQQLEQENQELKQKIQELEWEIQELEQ

4H56-bN = target: T17, 4H56-bN; assay: two-hybrid library CCNG1
T17 chain: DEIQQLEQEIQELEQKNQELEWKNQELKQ

4H3605-AA = target: T18, 4H3605-AA; assay: two-hybrid library CCmax; conditions: mean of both orientations
T18 chain: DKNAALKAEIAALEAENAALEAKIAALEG

4H2513-AA = target: T19, 4H2513-AA; assay: two-hybrid library CCmax; conditions: mean of both orientations
T19 chain: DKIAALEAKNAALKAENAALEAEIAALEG

4H327-AA = target: T20, 4H327-AA; assay: two-hybrid library CCmax; conditions: mean of both orientations
T20 chain: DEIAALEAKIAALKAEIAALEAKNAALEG

4H3922-AA = target: T21, 4H3922-AA; assay: two-hybrid library CCmax; conditions: mean of both orientations
T21 chain: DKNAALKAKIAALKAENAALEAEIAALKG

4H3664-AA = target: T22, 4H3664-AA; assay: two-hybrid library CCmax; conditions: mean of both orientations
T22 chain: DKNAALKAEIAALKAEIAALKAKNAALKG

4H2726-AA = target: T23, 4H2726-AA; assay: two-hybrid library CCmax; conditions: mean of both orientations
T23 chain: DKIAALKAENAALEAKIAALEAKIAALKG

4H2614-AA = target: T24, 4H2614-AA; assay: two-hybrid library CCmax; conditions: mean of both orientations
T24 chain: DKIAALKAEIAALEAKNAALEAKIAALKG

4H2608-AA = target: T25, 4H2608-AA; assay: two-hybrid library CCmax; conditions: mean of both orientations
T25 chain: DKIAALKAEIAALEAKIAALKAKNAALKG

4H2211-AA = target: T26, 4H2211-AA; assay: two-hybrid library CCmax
T26 chain: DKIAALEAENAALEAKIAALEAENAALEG

4H2935-AA = target: T27, 4H2935-AA; assay: two-hybrid library CCmax; conditions: mean of both orientations
T27 chain: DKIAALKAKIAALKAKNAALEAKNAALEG

4H369-AA = target: T28, 4H369-AA; assay: two-hybrid library CCmax; conditions: mean of both orientations
T28 chain: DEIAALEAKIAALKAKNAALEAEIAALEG

4H662-AA = target: T29, 4H662-AA; assay: two-hybrid library CCmax; conditions: mean of both orientations
T29 chain: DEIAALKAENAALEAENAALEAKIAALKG

4H2238-AA = target: T30, 4H2238-AA; assay: two-hybrid library CCmax; conditions: mean of both orientations
T30 chain: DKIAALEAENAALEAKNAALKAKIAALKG

4H2536-AA = target: T31, 4H2536-AA; assay: two-hybrid library CCmax; conditions: mean of both orientations
T31 chain: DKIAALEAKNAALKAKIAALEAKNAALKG

4H3625-AA = target: T32, 4H3625-AA; assay: two-hybrid library CCmax; conditions: mean of both orientations
T32 chain: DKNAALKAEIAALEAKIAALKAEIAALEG

4H481-AA = target: T33, 4H481-AA; assay: two-hybrid library CCmax; conditions: mean of both orientations
T33 chain: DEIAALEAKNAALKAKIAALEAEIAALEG

4H4033-AA = target: T34, 4H4033-AA; assay: two-hybrid library CCmax; conditions: mean of both orientations
T34 chain: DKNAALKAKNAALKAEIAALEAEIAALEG

4H55-AA = target: T35, 4H55-AA; assay: two-hybrid library CCmax; conditions: mean of both orientations
T35 chain: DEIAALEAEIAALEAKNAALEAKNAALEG

P6A-bN = target: T36, P6A-bN; assay: two-hybrid library CCNG1
T36 chain: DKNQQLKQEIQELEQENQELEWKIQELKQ

P7A-bN = target: T37, P7A-bN; assay: two-hybrid library CCNG1
T37 chain: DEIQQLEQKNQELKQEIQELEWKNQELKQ

P9A-bN = target: T38, P9A-bN; assay: two-hybrid library CCNG1
T38 chain: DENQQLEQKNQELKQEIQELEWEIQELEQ

P8A-bN = target: T39, P8A-bN; assay: two-hybrid library CCNG1
T39 chain: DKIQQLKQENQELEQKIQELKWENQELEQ

P4A-bN = target: T40, P4A-bN; assay: two-hybrid library CCNG1
T40 chain: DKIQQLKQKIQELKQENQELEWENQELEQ

P3A-bN = target: T41, P3A-bN; assay: two-hybrid library CCNG1
T41 chain: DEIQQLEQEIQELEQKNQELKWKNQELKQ

P5A-bN = target: T42, P5A-bN; assay: two-hybrid library CCNG1
T42 chain: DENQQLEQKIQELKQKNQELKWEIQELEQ

Binder: DKIQQLEQKNQELEQEIQELKWENQELKQ [4H2444-bN]
- interaction score (4H2931-bN): -0.103
- interaction score (4H796-bN): -0.0985
- interaction score (4H3041-bN): 0.447
- interaction score (4H2518-bN): -0.0731
- interaction score (4H730-bN): -0.506
- interaction score (4H2444-bN): 1.34
- interaction score (4H3364-bN): -0.17
- interaction score (4H3381-bN): 0.0258
- interaction score (4H2760-bN): -0.126
- interaction score (4H932-bN): 0.018
- interaction score (4H349-bN): -0.375
- interaction score (4H2585-bN): -0.578
- interaction score (4H2859-bN): 0.194
- interaction score (4H949-bN): -0.477
- interaction score (4H264-bN): 0.471
- interaction score (4H3297-bN): -0.0483
- interaction score (4H56-bN): 0.273

Binder: DKIAALEAENAALEAKIAALEAENAALEG [4H2211-AA]
- interaction score (4H3605-AA): -1.6
- interaction score (4H2513-AA): -1.48
- interaction score (4H327-AA): -1.1
- interaction score (4H3922-AA): -1.15
- interaction score (4H3664-AA): -1.82
- interaction score (4H2726-AA): 0.569
- interaction score (4H2614-AA): -1.44
- interaction score (4H2608-AA): -0.966
- interaction score (4H2211-AA): -0.565
- interaction score (4H2935-AA): -1.25
- interaction score (4H369-AA): -1.37
- interaction score (4H662-AA): -1.54
- interaction score (4H2238-AA): -1.07
- interaction score (4H2536-AA): 1.92
- interaction score (4H3625-AA): -1.16
- interaction score (4H481-AA): 1.2
- interaction score (4H4033-AA): -1.42
- interaction score (4H55-AA): -1.44

Binder: DEIQQLEQEIQELEQKNQELKWKNQELKQ [P3A-bN]
- interaction score (P6A-bN): 0.0905
- interaction score (P7A-bN): 0.502
- interaction score (P9A-bN): 0.0484
- interaction score (P8A-bN): -0.0492
- interaction score (P4A-bN): 1.79
- interaction score (P3A-bN): -0.693
- interaction score (P5A-bN): -1.91
